Our source for the other values is paper PMC2935290.

B1: … Y4A (peptide)
peptide: EKKAFAATQFEPLAA
B2: … E11I (peptide)
peptide: EKKYFAATQFIPLAA
B3: … Q9S (peptide)
peptide: EKKYFAATSFEPLAA
B4: … A6E (peptide)
peptide: EKKYFEATQFEPLAA
B5: … A6C (peptide)
peptide: EKKYFCATQFEPLAA
B6: … A6I (peptide)
peptide: EKKYFIATQFEPLAA
B7: … Y4Q (peptide)
peptide: EKKQFAATQFEPLAA
B8: … A6T (peptide)
peptide: EKKYFTATQFEPLAA
B9: … A6D (peptide)
peptide: EKKYFDATQFEPLAA
B10: … E11L (peptide)
peptide: EKKYFAATQFLPLAA
B11: … A6Y (peptide)
peptide: EKKYFYATQFEPLAA
B12: … E11Q (peptide)
peptide: EKKYFAATQFQPLAA
B13: … A6K (peptide)
peptide: EKKYFKATQFEPLAA
B14: … Q9F (peptide)
peptide: EKKYFAATFFEPLAA
B15: … Q9V (peptide)
peptide: EKKYFAATVFEPLAA
B16: … Q9K (peptide)
peptide: EKKYFAATKFEPLAA
B17: … E11R (peptide)
peptide: EKKYFAATQFRPLAA
B18: … Q9A (peptide)
peptide: EKKYFAATAFEPLAA
B19: … E11V (peptide)
peptide: EKKYFAATQFVPLAA
B20: … E11N (peptide)
peptide: EKKYFAATQFNPLAA
B21: … T8W (peptide)
peptide: EKKYFAAWQFEPLAA
B22: … T8Y (peptide)
peptide: EKKYFAAYQFEPLAA
B23: … E11W (peptide)
peptide: EKKYFAATQFWPLAA
B24: … Y4D (peptide)
peptide: EKKDFAATQFEPLAA
B25: … Q9H (peptide)
peptide: EKKYFAATHFEPLAA
B26: … Q9C (peptide)
peptide: EKKYFAATCFEPLAA
B27: … Q9R (peptide)
peptide: EKKYFAATRFEPLAA
B28: … A6F (peptide)
peptide: EKKYFFATQFEPLAA
B29: … A6P (peptide)
peptide: EKKYFPATQFEPLAA
B30: … T8D (peptide)
peptide: EKKYFAADQFEPLAA
B31: … T8N (peptide)
peptide: EKKYFAANQFEPLAA
B32: … Q9P (peptide)
peptide: EKKYFAATPFEPLAA

For the first assay, the target named is HLA-DPB1*0201 (human (endogenous in JY)). In words: radioligand binding.
Take B1: the other was 0.2.
As for B2, the other is 1.8.
Take B3: the other turned out to be 2.
Still for that read-out and setting: next, B4: 0.41; B5: 0.38; B6: 0.89.
Same read-out and setting: next, B7: 1.8; B8: 1; B9: 0.36.
The same measure, in the same setting: in the case of B10 it was 2.

The target of another assay is HLA-DPB1*0501 (human (endogenous in HO301)). In words: radioligand binding.
On to B11, for which the other is 2.1.
For B12, the other turned out to be 1.
The molecule B13 had an other of 1.8.
B2 displayed an other of 2.1.
The same measure, in the same setting: in the case of B14 it was 13; in that of B15, 3.4.
In turn, B16 gave an other of 0.95.
The same measure, in the same setting: next, B17: 1.
As to B18, the other came to 1.
Molecule B19 came in with an other of 2.
Still for that read-out and setting: next, B20: 0.36; B21: 0.13; B22: 0.2.
Still for that read-out and setting: next, B23: 0.13.
B9 gave an other of 0.13.

The target of a further assay is HLA-DPB1*0101 (human (endogenous in VAVY)). As to the kind of experiment: radioligand binding.
The molecule B24 had an other of 2.
For B1, the other worked out at 0.066.
B11 came in with an other of 6.
The same measure, in the same setting: in the case of B25 it was 1; in that of B26, 1.8.
Still for that read-out and setting: next, B27: 1.8; B28: 2.1.
Consider B29, for which the other stood at 0.18.
B30 had an other of 0.2.
In the case of B31, the other was 3.4.
Same read-out and setting: next, B7: 1; B8: 2.1; B32: 1.
